Assay results published in patent US20220081485A1 (BEIJING WISDOMAB BIOTECHNOLOGY, published 2022).
Substitutions are numbered along the chain they refer to. Like-named read-outs stand apart in the source and are kept apart here.

Tests used:
[1] = target: T1, human IL-4R on cells (HEK-Blue IL-4/IL-13 cells, TF-1 cells, human PBMCs) (human, UniProt P24394 26-825); experiment: cell-based or functional assay
T1 sequence (looked up): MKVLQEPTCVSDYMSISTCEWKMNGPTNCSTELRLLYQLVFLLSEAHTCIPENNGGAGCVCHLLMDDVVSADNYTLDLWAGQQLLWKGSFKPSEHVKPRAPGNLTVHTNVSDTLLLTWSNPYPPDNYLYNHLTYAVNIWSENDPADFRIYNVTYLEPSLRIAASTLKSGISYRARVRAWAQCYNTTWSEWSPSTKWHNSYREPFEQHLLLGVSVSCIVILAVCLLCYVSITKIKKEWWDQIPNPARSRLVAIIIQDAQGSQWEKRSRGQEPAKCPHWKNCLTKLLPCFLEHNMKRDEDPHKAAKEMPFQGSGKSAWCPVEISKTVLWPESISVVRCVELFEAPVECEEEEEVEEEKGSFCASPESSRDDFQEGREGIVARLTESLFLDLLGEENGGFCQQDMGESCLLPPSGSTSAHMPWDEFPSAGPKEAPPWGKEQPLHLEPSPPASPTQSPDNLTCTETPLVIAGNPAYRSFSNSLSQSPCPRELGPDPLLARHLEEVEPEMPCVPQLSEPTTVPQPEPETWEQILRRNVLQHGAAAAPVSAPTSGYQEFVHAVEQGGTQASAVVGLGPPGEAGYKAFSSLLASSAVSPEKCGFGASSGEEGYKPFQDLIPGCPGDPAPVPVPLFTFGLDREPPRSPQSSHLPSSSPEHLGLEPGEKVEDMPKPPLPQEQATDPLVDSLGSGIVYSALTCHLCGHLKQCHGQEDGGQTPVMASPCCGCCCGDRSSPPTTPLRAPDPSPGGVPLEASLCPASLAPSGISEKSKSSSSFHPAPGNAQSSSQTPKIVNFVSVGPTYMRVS

[2] = target: T2, mmIL4R-mFc (Macaca mulatta IL-4R extracellular domain fused to murine IgG2a Fc) (Macaca mulatta); experiment: SPR Biacore X100, antibody captured, mmIL4R-mFc as analyte
T2 chain: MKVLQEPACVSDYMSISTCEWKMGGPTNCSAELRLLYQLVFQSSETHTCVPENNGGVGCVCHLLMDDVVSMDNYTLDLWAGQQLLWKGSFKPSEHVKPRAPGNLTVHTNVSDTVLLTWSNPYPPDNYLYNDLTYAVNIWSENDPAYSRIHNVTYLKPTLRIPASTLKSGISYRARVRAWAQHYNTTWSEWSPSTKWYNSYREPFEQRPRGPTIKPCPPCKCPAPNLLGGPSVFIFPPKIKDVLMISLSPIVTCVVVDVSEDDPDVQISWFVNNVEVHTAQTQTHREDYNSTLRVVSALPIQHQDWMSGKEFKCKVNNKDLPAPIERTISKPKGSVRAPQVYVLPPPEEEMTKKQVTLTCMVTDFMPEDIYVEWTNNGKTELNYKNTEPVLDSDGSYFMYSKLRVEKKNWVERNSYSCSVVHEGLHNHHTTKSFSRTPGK
Protocol: (§1) The affinity of each anti-IL4R IgG4 chimeric antibody was determined using Biacore X100. Amino coupling kits, human antibody capture kits, CM5 chips, 1× HBS-EP (pH 7.4) and all reagents used in this assay were purchased from GE Healthcare. According to the instructions in the kits, an antibody against the human Fc region was coupled to the surface of the CM5 chip using an amino coupling method, and antibody proteins were diluted to appropriate concentrations to ensure that about 100 RU of the antibodies was captured by the antibody against the human Fc. IL4R-his was set to a series of concentration gradients (100 nm, 33.3 nm, 11.1 nm, 3.7 nm, 1.23 nm) and flew through the surface of the stationary phase.
Similarly, anti-IL4R monoclonal antibodies were captured and mmIL4R-mFc was set to a series of concentration gradient (50 nm, 16.7 nm, 5.56 nm, […], 0.62 nm).

[3] = target: T3, IL4R-mFc (human IL-4R extracellular domain fused to murine IgG2a Fc) (human (Homo sapiens)); experiment: blocking ELISA: antibody gradient with IL4-his at a fixed concentration on coated IL4R-mFc; bound IL4-his detected with HRP-mouse-anti-his IgG
T3 construct: also called antigen IL4R-mFc
Protocol: (§2) 96 well plates were coated with antigen IL4R-mFc (3 μg/ml, 100 μI/well) overnight at 4° C.

[4] = target: T1, human IL-4R on cells (HEK-Blue …); experiment: cell-based or functional assay; remark: listed apart in the source
[5] = target: T1, human IL-4R on cells (HEK-Blue …); experiment: cell-based or functional assay; remark: listed apart in the source
[6] = target: T4, recombinant hIL4R-his (human IL-4R extracellular domain with C-terminal His tag) (human (Homo sapiens), UniProt P24394 26-232); experiment: SPR Biacore X100, antibody captured by anti-human Fc, IL4R-his as analyte, 25 C
T4 construct: The tag was added at the C-terminus; The protein was expressed in HEK293 cells; also called huIL4R
T4 sequence: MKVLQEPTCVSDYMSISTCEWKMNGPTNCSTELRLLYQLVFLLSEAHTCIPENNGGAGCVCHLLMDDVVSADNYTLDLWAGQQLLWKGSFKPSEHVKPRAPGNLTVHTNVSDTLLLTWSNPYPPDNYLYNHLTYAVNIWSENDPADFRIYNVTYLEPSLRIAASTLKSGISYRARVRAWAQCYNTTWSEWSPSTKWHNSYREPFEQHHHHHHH
Protocol: as §1

[7] = target: T1, human IL-4R on cells (HEK-Blue …); experiment: cell-based or functional assay; remark: listed apart in the source
[8] = target: T1, human IL-4R on cells (HEK-Blue …); experiment: cell-based or functional assay; remark: listed apart in the source
[9] = target: T1, human IL-4R on cells (HEK-Blue …); experiment: cell-based or functional assay; remark: listed apart in the source
[10] = target: T4, recombinant hIL4R-his (human IL-4R …); experiment: SPR Biacore X100, antibody captured by anti-human Fc, IL4R-his as analyte, 25 C; remark: listed apart in the source
Protocol: as §1

[11] = target: T1, human IL-4R on cells (HEK-Blue …); experiment: cell-based or functional assay; remark: listed apart in the source
[12] = target: T3, IL4R-mFc (human IL-4R extracellular …); experiment: blocking ELISA: antibody gradient with IL4-his at a fixed concentration on coated IL4R-mFc; bound IL4-his detected with HRP-mouse-anti-his IgG; remark: listed apart in the source
Protocol: as §2

B1: L18D7-IgG4 (antibody, V domains shown)
VH: EVQLVESGGGLVQPGGSLRLSCAVSGFTFSSYAMSWVRQAPGKGLEWVSSITGGGGGIYYADSVKGRFTISRDNSKNTVYLQMNSLRAEDTAVYYCAKDRISITIRPRYFGLDFWGQGTTVTVSS
VL: DIVMTQSPLSLPVTPGEPASISCRSSQSLLYSIGYNYLDWYLQKSGQSPQLLIYLGSNRASGVPDRFSGSGSGTDFTLKISRVEAEDVGFYYCMQSFKAPYTFGQGTKLEIKR
notes: also called S1E6 light chain mutant L18D7
[1]
  IC50 values in inhibition of IL-4 (IL-4 induced proliferation of TF-1 cells, CellTiter-Glo): 116 pM
[2]
  Kd: 1670 pM
  koff: 0.000984 s⁻¹
  kon: 590000 M⁻¹ s⁻¹
[3]
  IC50 (read off the curve): ~10000 pM
[4]
  IC50 values in inhibition of CD23 expression on human PBMCs (IL-4 stimulated, flow cytometry): 26.8 pM
[5]
  IC50 values in inhibition of IL-13 (SEAP, HEK-Blue IL-4/IL-13 cells): 10.2 pM
[6]
  Kd: 480 pM
  koff: 0.000143 s⁻¹
  kon: 297000 M⁻¹ s⁻¹
[7]
  IC50 values in inhibition of IL-4 (SEAP, HEK-Blue IL-4/IL-13 cells): 48.4 pM

B2: L28C9-IgG4 (antibody, V domains shown)
VH: B1 VH
VL: B1 VL with S28N, L29V, L30V, S32G, I33N, S57N, R59V, S61A, F97L
notes: also called S1E6 light chain mutant L28C9
[1]
  IC50 values in inhibition of IL-4 (IL-4 induced proliferation of TF-1 cells, CellTiter-Glo): 129 pM
[2]
  Kd: 8400 pM
  koff: 0.00594 s⁻¹
  kon: 706000 M⁻¹ s⁻¹
[3]
  IC50 (read off the curve): ~4000 pM
[4]
  IC50 values in inhibition of CD23 expression on human PBMCs (IL-4 stimulated, flow cytometry): 63.5 pM
[8]
  fold of IC50 in inhibition of IL-4 induced CD23 expression on PBMCs against L18D7: 2.3 fold
[5]
  IC50 values in inhibition of IL-13 (SEAP, HEK-Blue IL-4/IL-13 cells): 12.1 pM
[6]
  Kd: 586 pM
  koff: 0.000194 s⁻¹
  kon: 331000 M⁻¹ s⁻¹
[7]
  IC50 values in inhibition of IL-4 (SEAP, HEK-Blue IL-4/IL-13 cells): 49.4 pM

B3: L10C2-IgG4 (antibody, V domains shown)
VH: B1 VH
VL: DIVMTQSPLSLPVTAGAPASISCRSSQSLLYSNGYNYLDWYMQKPGQSPQLLIYLGSNRASGVPDRFSGSGSGTDFTLKISRVEAEDVGVYYCMQALETPYAFGQGTKVEIKR
notes: also called S1E6 light chain mutant L10C2
[9]
  IC50 values in inhibition of IL-4 (SEAP, HEK-Blue IL-4/IL-13 cells): 333 pM
[10]
  Kd: 874 pM
  koff: 0.000309 s⁻¹
  kon: 353000 M⁻¹ s⁻¹
[11]
  IC50 values in inhibition of IL-13 (SEAP, HEK-Blue IL-4/IL-13 cells): 31.4 pM
[12]
  IC50 (read off the curve): ~8000 pM
[8]
  fold of IC50 in inhibition of IL-4 against L10B2 (HEK-Blue IL-4/IL-13 cells): 1.6 fold
  fold of IC50 in inhibition of IL-13 against L10B2 (HEK-Blue IL-4/IL-13 cells): 2.4 fold
